The values below come from article PMC8439657, “Bipartite binding and partial inhibition links DEPTOR and mTOR in a mutually antagonistic embrace” (eLife, 2021).

By Kd is commonly meant a measure of binding affinity in units of concentration.

The assay addresses T1, mTOR FRB domain, residues 2015-2114 (human, UniProt P42345 2015-2114).
T1 construct: mTOR, human, FRB domain, residues 2015-2114; The methods describe the purification of the GST-FRB fusion and mention no TEV cleavage; also called isolated FRB domain; source: E. coli C41(DE3)RIPL, purified (Glutathione-Sepharose, HiTrapQ, Superdex 75)
Description: NMR titration; up to 220 µM unlabelled linker-PDZ added to 40 µM 15N-labelled FRB; 1H-15N BEST-TROSY, chemical shift perturbation; 278K, pH 8, 50 mM HEPES, 200 mM NaCl. As to conditions: both partners purified.

T1 sequence (P42345 2015-2114): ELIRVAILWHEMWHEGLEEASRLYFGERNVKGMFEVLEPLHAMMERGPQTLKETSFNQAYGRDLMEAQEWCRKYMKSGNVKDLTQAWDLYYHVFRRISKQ

B1: DEPTOR long-linker-PDZ, residues 228-409 (domain or fragment)
chain: MELLNEKSPSSQETHDSPFCLRKQSHDNRKSTSFMSVSPSKEIKIVSAVRRSSMSSCGSSGYFSSSPTLSSSPPVLCNPKSVLKRPVTSEELLTPGAPYARKTFTIVGDAVGWGFVVRGSKPCHIQAVDPSGPAAAAGMKVCQFVVSVNGLNVLHVDYRTVSNLILTGPRTIVMEVMEELEC
modifications: GST tag left out (TEV-cleavable). pOPL111 states no variant, so the reference sequence is used. The full-length WT clone is the S204/N389 natural variant, so residue 389 of this construct may be N …
B1: the Kd is about 500 µM.
